Key:
BCMA protein = BCMA protein (UniProt Q02223); assay: cell-based or functional assay
[1] = target: BCMA expressed on K562 Very High-BCMA cells (UniProt Q02223); assay: cell-based or functional assay

B1: anti-BCMA CAR (co-stimulatory domain not specified for the experiment) (protein, part only; not given: CAR hinge, transmembrane, signaling domains, part only)
chain, part: DIVLTQSPPSLAMSLGKRATISCRASESVTILGSHLIHWYQQKPGQPPTLLIQLASNVQTGVPARFSGSGSRTDFTLTIDPVEEDDVAVYYCLQSRTIPRTFGGGTKLEIKGSTSGSGKPGSGEGSTKGQIQLVQSGPELKKPGETVKISCKASGYTFTDYSINWVKRAPGKGLKWMGWINTETREPAYAYDFRGRFAFSLETSASTAYLQINNLKYEDTATYFCALDYSYAMDYWGQGTSVTVSS
- CD107a+ cells (%), degranulation after 18 hours (BCMA protein): 22.2%
- CD107a+ cells (%), degranulation after 18 hours [1]: 3.82%
